Here are results for 39 sequences from the supplement of paper PMC7877785.

± gives the uncertainty stated by the source.

The data set is described as follows: self-splicing fitness, log relative to wild type (ln ratio); higher = more splicing; Tetrahymena group I intron in knt gene, E. coli kanamycin selection, DiMSum; sequences stand for … in CUCUCU…GGAGGGAAAAGUUAUCAGGCAUGCACCUGGUAGCUAGUCUUUAAACCAAUAGAUUGCAUCGGUUUAAAAGGCAAGACCGUCAAAUUGCGGGAAAGGGGUCAACAGCCGUUCAGUACCAAGUCUCAGGGGAAACUUUGAGAUGGCCUUGCAAAGGGUAUGGUAAUAAGCUGACGGACAUGGUCCUAACCACGCAGCCAAGUCCUAAGUCAACAGAUCUUCUGUUGAUAUGGAUGCAGUUCACAGACUAAAUGUCGGUCGGGGAAGAUGUAUUCUUCUCAUAAGAUAUAGUCGGACCUCUCCUUAAUGGGAGCUAGCGGAUGAAGUGAUGCAACACUGGAGCCGCUGGGAACUAAUUUGUAUGCGAAAGUAUAUUGAUUAGUUUUGGAGUACUCGUGGUCG
In a few lines: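 Colonies from six replicate transformations of E. coli BL21(DE3) were pooled and amplicon-sequenced on an Illumina HiSeq 2500. The library placed an intron with all eight P1ex-region nucleotides randomised inside the knt kanamycin-resistance gene on pET-22b(+), and cells grew overnight at 37°C or 30°C on LB agar with or without 25 μg/mL kanamycin (plus 100 μg/mL carbenicillin, 50 μM IPTG, 0.2% rhamnose). Fitness is the DiMSum error-weighted combination of wild-type-normalised replicate fold changes, kanamycin versus none.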

On to GAUUAGCAAUAUUACGUUAU, for which the “self-splicing fitness (ln)” value is -3.04 ± 0.21 (30 °C) and -2.51 ± 0.18 (37 °C).

Consider UUAUAGCAAUAUUACGGAGA, for which the “self-splicing fitness (ln)” value runs as follows: (30 °C) -2.04 ± 0.27; (37 °C) -1.89 ± 0.32.

On to CGAUAGCAAUAUUACGCAUG, for which the “self-splicing fitness (ln)” value runs as follows: (30 °C) -1.79 ± 0.07; (37 °C) -0.761 ± 0.069.

As to CUUUAGCAAUAUUACGAAGA, the “self-splicing fitness (ln)” value (37 °C) was -2.43 ± 0.34.

In the case of GCACAGCAAUAUUACGCGGC, the “self-splicing fitness (ln)” value by setting is: (30 °C) -4.04 ± 0.43; (37 °C) -1.84 ± 0.26.

Take CCCGAGCAAUAUUACGGCCA: the “self-splicing fitness (ln)” value is -2.88 ± 0.23 (30 °C) and -3.57 ± 0.28 (37 °C).

Regarding AAAUAGCAAUAUUACGUUCG, the “self-splicing fitness (ln)” value was -1.17 ± 0.088 (30 °C) and -0.371 ± 0.13 (37 °C).

In the case of CUAUAGCAAUAUUACGUAGG, the “self-splicing fitness (ln)” value (30 °C) is -1.44 ± 0.085 and the “self-splicing fitness (ln)” value (37 °C) is -0.685 ± 0.13.

AGAUAGCAAUAUUACGCCUA: the “self-splicing fitness (ln)” value runs as follows: (30 °C) -1.21 ± 0.099; (37 °C) -1.29 ± 0.13.

As to AAACAGCAAUAUUACGGAUU, the “self-splicing fitness (ln)” value is, setting by setting: (30 °C) -1.67 ± 0.068; (37 °C) -0.362 ± 0.079.

Consider GCGUAGCAAUAUUACGAGGC, for which the “self-splicing fitness (ln)” value (37 °C) was -1.53 ± 0.39.

As for UUCAAGCAAUAUUACGGACU, the “self-splicing fitness (ln)” value runs as follows: (30 °C) -2.76 ± 0.17; (37 °C) -0.504 ± 0.13.

On to AGAGAGCAAUAUUACGAAUU, for which the “self-splicing fitness (ln)” value is, setting by setting: (30 °C) -1.19 ± 0.2; (37 °C) -2.95 ± 0.32.

CUUGAGCAAUAUUACGCGCG: the “self-splicing fitness (ln)” value is, setting by setting: (30 °C) -3.32 ± 0.29; (37 °C) -1.63 ± 0.25.

In the case of UUACAGCAAUAUUACGCUCG, the “self-splicing fitness (ln)” value (30 °C) turned out to be 0.107 ± 0.086 and the “self-splicing fitness (ln)” value (37 °C) amounted to 0.283 ± 0.11.

With UUCGAGCAAUAUUACGGCCC, the “self-splicing fitness (ln)” value (30 °C) is -1.75 ± 0.4.

As for AGGUAGCAAUAUUACGGGCA, the “self-splicing fitness (ln)” value was -0.941 ± 0.017 (30 °C) and -0.414 ± 0.034 (37 °C).

Turning to AUCUAGCAAUAUUACGGCCG, the “self-splicing fitness (ln)” value is, setting by setting: (30 °C) -1.43 ± 0.23; (37 °C) -0.562 ± 0.38.

Consider GAUGAGCAAUAUUACGUGCU, for which, for the setting “30 °C”, the “self-splicing fitness (ln)” value is -2.91 ± 0.44.

With GAGCAGCAAUAUUACGUCCC, the “self-splicing fitness (ln)” value is, setting by setting: (30 °C) -0.684 ± 0.11; (37 °C) -0.465 ± 0.19.

Turning to GAAAAGCAAUAUUACGCCAG, the “self-splicing fitness (ln)” value is -2.72 ± 0.21 (30 °C) and -2.28 ± 0.32 (37 °C).

As for GAAAAGCAAUAUUACGUACG, the “self-splicing fitness (ln)” value reads like this: (30 °C) -1.16 ± 0.061; (37 °C) -0.9 ± 0.079.

As to CUUGAGCAAUAUUACGCAUC, the “self-splicing fitness (ln)” value runs as follows: (30 °C) -3.14 ± 0.4; (37 °C) -2.75 ± 0.44.

For the sequence UAUGAGCAAUAUUACGAUUA, the “self-splicing fitness (ln)” value is -0.445 ± 0.094 (30 °C) and 0.467 ± 0.093 (37 °C).

For the sequence AAGGAGCAAUAUUACGGUCU, the “self-splicing fitness (ln)” value by setting is: (30 °C) -2.3 ± 0.15; (37 °C) -0.298 ± 0.12.

As for CCCCAGCAAUAUUACGCCAA, the “self-splicing fitness (ln)” value (30 °C) is -2.64 ± 0.17 and the “self-splicing fitness (ln)” value (37 °C) was -2.7 ± 0.19.

Take UUUAAGCAAUAUUACGUUUG: the “self-splicing fitness (ln)” value runs as follows: (30 °C) -2.96 ± 0.19; (37 °C) -1.42 ± 0.13.

In the case of AUUUAGCAAUAUUACGGCAG, the “self-splicing fitness (ln)” value is -2.47 ± 0.14 (30 °C) and -0.321 ± 0.15 (37 °C).

As to UAAAAGCAAUAUUACGGGUU, the “self-splicing fitness (ln)” value by setting is: (30 °C) -3.85 ± 0.28; (37 °C) -1.48 ± 0.12.

AACCAGCAAUAUUACGCAUA: the “self-splicing fitness (ln)” value was -0.88 ± 0.078 (30 °C) and 0.309 ± 0.089 (37 °C).

Turning to CGUAAGCAAUAUUACGUGUG, the “self-splicing fitness (ln)” value is -1.29 ± 0.063 (30 °C) and -0.745 ± 0.078 (37 °C).

As for CCACAGCAAUAUUACGUGUU, the “self-splicing fitness (ln)” value is, setting by setting: (30 °C) -3.75 ± 0.1; (37 °C) -3.15 ± 0.14.

Take GUUUAGCAAUAUUACGUGGU: the “self-splicing fitness (ln)” value (37 °C) is -1.23 ± 0.44.

Regarding AGUCAGCAAUAUUACGCAAC, the “self-splicing fitness (ln)” value was -1.65 ± 0.18 (30 °C) and -1.22 ± 0.21 (37 °C).

As to UACGAGCAAUAUUACGUAUA, the “self-splicing fitness (ln)” value is -2.7 ± 0.2 (30 °C) and -0.839 ± 0.14 (37 °C).

Take GAGAAGCAAUAUUACGACCC: for the setting “30 °C”, the “self-splicing fitness (ln)” value was -1.83 ± 0.38.

CAAUAGCAAUAUUACGGCAA: the “self-splicing fitness (ln)” value is -3.51 ± 0.38 (30 °C) and -1.11 ± 0.22 (37 °C).

For the sequence GUGUAGCAAUAUUACGUAGU, the “self-splicing fitness (ln)” value is -2.99 ± 0.18 (30 °C) and -1.37 ± 0.17 (37 °C).

Regarding AGGUAGCAAUAUUACGGGGU, the “self-splicing fitness (ln)” value by setting is: (30 °C) -3.984 ± 0.027; (37 °C) -2.94 ± 0.038.
